Assay results reported in US20230002480A1.

Assays:
Experiment in all cases: cell-based or functional assay
[1] = molecular target: HIV-1 Env of pseudovirus THRO4156.18 (clade B) (HIV-1)
[2] = molecular target: HIV-1 Env of pseudovirus 62357_14_D3_4589 (clade B (T/F)) (HIV-1)
[3] = molecular target: HIV-1 Env of pseudovirus Ce704809221_1B3 (clade C (T/F)) (HIV-1)
[4] = molecular target: HIV-1 Env of pseudovirus ZM109F.PB4 (clade C) (HIV-1)
[5] = molecular target: HIV-1 Env of pseudovirus BF1266.431a (clade C (T/F)) (HIV-1)
[6] = molecular target: HIV-1 Env of pseudovirus WEAU_d15_410_787 (clade B (T/F)) (HIV-1)
[7] = molecular target: HIV-1 Env of pseudovirus 1012_11_TC21_3257 (clade B (T/F)) (HIV-1)
[8] = molecular target: HIV-1 Env of pseudovirus Du422.1 (clade C) (HIV-1)
[9] = molecular target: HIV-1 Env of pseudovirus HIV-16055-2.3 (clade C) (HIV-1)
[10] = molecular target: HIV-1 Env of pseudovirus CNE17 (clade BC) (HIV-1)
[11] = molecular target: HIV-1 Env of pseudovirus 7030102001E5(Rev-) (clade C (T/F)) (HIV-1)
[12] = molecular target: HIV-1 Env of pseudovirus Q461.e2 (clade A) (HIV-1)
[13] = molecular target: HIV-1 Env of pseudovirus CNE20 (clade BC) (HIV-1)
[14] = molecular target: HIV-1 Env of pseudovirus Ce2010_F5 (clade C (T/F)) (HIV-1)
[15] = molecular target: HIV-1 Env pseudovirus R2184.c04 (HIV-1)
[16] = molecular target: HIV-1 Env pseudovirus 0260.v5.c36 (HIV-1)
[17] = molecular target: HIV-1 Env pseudovirus 3415.v1.c1 (HIV-1)
[18] = molecular target: HIV-1 Env pseudovirus P1981_C5_3 (HIV-1)
[19] = molecular target: HIV-1 Env pseudovirus 6540.v4.c1 (HIV-1)
[20] = molecular target: HIV-1 Env pseudovirus BJOX009000.02.4 (HIV-1)
[21] = molecular target: HIV-1 Env pseudovirus CNE8 (HIV-1)
[22] = molecular target: HIV-1 Env pseudovirus 6545.v4.c1 (HIV-1)
[23] = molecular target: HIV-1 Env pseudovirus A07412M1.vrc12 (HIV-1)
[24] = molecular target: HIV-1 Env pseudovirus T251-18 (HIV-1)
[25] = molecular target: HIV-1 Env pseudovirus BJOX010000.06.2 (HIV-1)
[26] = molecular target: HIV-1 Env pseudovirus X2131_C1_B5 (HIV-1)

With N49P7.2 (antibody) the IC50 [1] was 6.29 µg/mL, the IC80 [1] was 33.3 µg/mL and the MPI [1] was 94. The IC50 [2] was 0.03 µg/mL, the IC80 [2] was 0.121 µg/mL and the MPI [2] was 100. For the same substance, the IC50 [3] was 0.874 µg/mL, the IC80 [3] was 3.88 µg/mL and the MPI [3] was 100. It also gave an IC50 [4] of 0.065 µg/mL, an IC80 [4] of 0.321 µg/mL and an MPI [4] of 99. For the same substance, the IC50 [5] was 0.029 µg/mL, the IC80 [5] was 0.159 µg/mL and the MPI [5] was 100. The IC50 [6] was 0.052 µg/mL, the IC80 [6] was 0.15 µg/mL and the MPI [6] was 100. The IC50 [7] was 0.06 µg/mL, the IC80 [7] was 0.285 µg/mL and the MPI [7] was 100. It also gave an IC50 [8] of over 50 µg/mL, an IC80 [8] of over 50 µg/mL and an MPI [8] of 22. It also gave an IC50 [9] of 0.204 µg/mL, an IC80 [9] of 0.721 µg/mL and an MPI [9] of 100. The IC50 [10] was 0.376 µg/mL, the IC80 [10] was 1.24 µg/mL and the MPI [10] was 100. For the same substance, the IC50 [11] was 0.313 µg/mL, the IC80 [11] was 1.03 µg/mL and the MPI [11] was 100. The IC50 [12] was 0.472 µg/mL, the IC80 [12] was 2.24 µg/mL and the MPI [12] was 100. The IC50 [13] was 0.119 µg/mL, the IC80 [13] was 0.574 µg/mL and the MPI [13] was 99. The IC50 [14] was 0.398 µg/mL, the IC80 [14] was 1.29 µg/mL and the MPI [14] was 100.
N49P9 (antibody) showed an IC50 [15] of 0.015 µg/mL, an IC80 [15] of 0.034 µg/mL and an MPI [15] of 100. For the same substance, the IC50 [16] was 0.466 µg/mL, the IC80 [16] was 1.85 µg/mL and the MPI [16] was 100. The IC50 [17] was 0.137 µg/mL, the IC80 [17] was 0.502 µg/mL and the MPI [17] was 100. It also gave an IC50 [18] of 0.308 µg/mL, an IC80 [18] of 0.701 µg/mL and an MPI [18] of 100. The IC50 [19] was over 50 µg/mL, the IC80 [19] was over 50 µg/mL and the MPI [19] was 49. For the same substance, the IC50 [20] was 0.727 µg/mL, the IC80 [20] was 3.29 µg/mL and the MPI [20] was 100. It also gave an IC50 [21] of 0.056 µg/mL, an IC80 [21] of 0.26 µg/mL and an MPI [21] of 100. It also gave an IC50 [22] of over 50 µg/mL, an IC80 [22] of over 50 µg/mL and an MPI [22] of 20. The IC50 [23] was 0.142 µg/mL, the IC80 [23] was 0.636 µg/mL and the MPI [23] was 100. The IC50 [24] was 0.147 µg/mL, the IC80 [24] was 0.517 µg/mL and the MPI [24] was 100. The IC50 [25] was 0.482 µg/mL, the IC80 [25] was 2.34 µg/mL and the MPI [25] was 100. For the same substance, the IC50 [26] was 0.082 µg/mL, the IC80 [26] was 0.274 µg/mL and the MPI [26] was 100.
N49P11 (antibody) was tested, and the IC50 [1] was 1.84 µg/mL, the IC80 [1] was 10.4 µg/mL and the MPI [1] was 100. For the same substance, the IC50 [2] was 0.599 µg/mL, the IC80 [2] was 3.56 µg/mL and the MPI [2] was 100. It also gave an IC50 [3] of 0.644 µg/mL, an IC80 [3] of 3.3 µg/mL and an MPI [3] of 100. For the same substance, the IC50 [4] was 5.2 µg/mL, the IC80 [4] was 19.4 µg/mL and the MPI [4] was 100. For the same substance, the IC50 [5] was 0.998 µg/mL, the IC80 [5] was 7.13 µg/mL and the MPI [5] was 100. It also gave an IC50 [6] of 1.7 µg/mL, an IC80 [6] of 6.02 µg/mL and an MPI [6] of 100. It also gave an IC50 [7] of 10.6 µg/mL, an IC80 [7] of 29.3 µg/mL and an MPI [7] of 100. The IC50 [8] was 8.81 µg/mL, the IC80 [8] was 21.2 µg/mL and the MPI [8] was 100. For the same substance, the IC50 [9] was 0.091 µg/mL, the IC80 [9] was 0.503 µg/mL and the MPI [9] was 100. For the same substance, the IC50 [10] was 6.68 µg/mL, the IC80 [10] was 25.6 µg/mL and the MPI [10] was 100. For the same substance, the IC50 [11] was 0.635 µg/mL, the IC80 [11] was 2.29 µg/mL and the MPI [11] was 100. The IC50 [12] was 0.363 µg/mL, the IC80 [12] was 2.15 µg/mL and the MPI [12] was 100. For the same substance, the IC50 [13] was 5.19 µg/mL, the IC80 [13] was 22.6 µg/mL and the MPI [13] was 100. It also gave an IC50 [14] of 0.38 µg/mL, an IC80 [14] of 3.27 µg/mL and an MPI [14] of 100.
N49P18.1 (antibody) was tested, and the IC50 [1] was over 50 µg/mL, the IC80 [1] was over 50 µg/mL and the MPI [1] was 19. It also gave an IC50 [2] of 10.4 µg/mL, an IC80 [2] of 48 µg/mL and an MPI [2] of 82. It also gave an IC50 [3] of 41.6 µg/mL, an IC80 [3] of over 50 µg/mL and an MPI [3] of 59. For the same substance, the IC50 [4] was 26.6 µg/mL, the IC80 [4] was over 50 µg/mL and the MPI [4] was 69. It also gave an IC50 [5] of 3.48 µg/mL, an IC80 [5] of 20.8 µg/mL and an MPI [5] of 93. It also gave an IC50 [6] of 4.27 µg/mL, an IC80 [6] of 15.5 µg/mL and an MPI [6] of 98. It also gave an IC50 [7] of 16.1 µg/mL, an IC80 [7] of over 50 µg/mL and an MPI [7] of 79. The IC50 [8] was 21.5 µg/mL, the IC80 [8] was over 50 µg/mL and the MPI [8] was 75. The IC50 [9] was 8.04 µg/mL, the IC80 [9] was 22.6 µg/mL and the MPI [9] was 97. It also gave an IC50 [10] of 39.7 µg/mL, an IC80 [10] of over 50 µg/mL and an MPI [10] of 56. For the same substance, the IC50 [11] was 6.35 µg/mL, the IC80 [11] was 17.7 µg/mL and the MPI [11] was 98. It also gave an IC50 [12] of 24.7 µg/mL, an IC80 [12] of over 50 µg/mL and an MPI [12] of 68. For the same substance, the IC50 [13] was 1.33 µg/mL, the IC80 [13] was 6.36 µg/mL and the MPI [13] was 100. The IC50 [14] was 29 µg/mL, the IC80 [14] was over 50 µg/mL and the MPI [14] was 68.
